Data on 7 molecules can be found in patent publication US20140302020A1 (ALETHIA BIOTHERAPEUTICS, published 2014).

Experiment [1] has as its target T1, recombinant monomeric human clusterin (human, UniProt P10909 23-449).
T1 construct: Tags and processing into alpha and beta chains are not described; also called recombinant human clusterin; immobilized clusterin
The experiment in a line: SPR (BIAcore 3000), recombinant monomeric human clusterin amine-coupled to a CM3 chip, Fab injected. As for the experimental part:
(§1) HBST (10 mM Hepes pH 7.4, 135 mM NaCl, 3.4 mM EDTA, 0.005% Tween 20) was used as running buffer for all BIAcore experiments. Recombinant monomeric clusterin was immobilized on a CM3 chip with normal amine coupling method at a flow of 5 μl/min. Surface was activated with 35 μl of a mixture of 50 mM NHS/0.2M EDC. Clusterin in 10 mM Na-acetate pH 4.5 was injected until a desired amount was captured (below 60RU). Unreacted esters were deactivated with 35 μl of 1M ethanolamine hydrochloride-NaOH pH8.5. A control surface was prepared by injecting NHS/EDC and ethanolamine in the same manner.
(§2) Kinetics analysis was conducted at a flow of 50 μl/min. Full length antibodies (mouse or humanized) or Fab were diluted in HBST. Concentration range was from 1.953-31.25 nM for the full length antibodies and 15.625-250 nM for the Fab. Each concentration was injected over the clusterin and a control surface for 5 min followed with a 5 min dissociation wash. The clusterin surface was regenerated between each antibody injection with 50 μl of 20 mM HCl.

The target of experiment [2] is T1, recombinant monomeric human clusterin. The experiment in a line: SPR (BIAcore 3000), recombinant monomeric human clusterin amine-coupled to a CM3 chip, full length antibody injected. The procedure: as §1, §2
The target is the same in experiment [3]. The experiment in a line: SPR (BIAcore 3000), recombinant monomeric human clusterin amine-coupled to a CM3 chip, Fab injected. As for the experimental part: (§3) The purpose of these investigations is to determine the kinetics parameters of anti-clusterin antibodies. In particular, to determine whether the humanization of the 16B5 and 21B12 anti-clusterin monoclonal antibody affects the kinetics parameters of its binding to human clusterin. To this end, a kinetic analysis method was developed using the BIAcore 3000. Human clusterin was immobilized on a sensor chip. Full length antibodies or Fab fragments were injected and allowed to interact with the immobilized clusterin. This example described the exemplary antibody 16B5 but the 21B12 exemplary antibody was prepared and tested in a similar manner.
as §1, §2
This is another data set of the same source.

The target is the same in experiment [4]. The experiment is described as follows: SPR (BIAcore 3000), recombinant monomeric human clusterin amine-coupled to a CM3 chip, full length antibody injected. The procedure:
as §3, §1, §2
The source holds these as a separate data set.

T1 sequence (P10909 23-449 limits assumed): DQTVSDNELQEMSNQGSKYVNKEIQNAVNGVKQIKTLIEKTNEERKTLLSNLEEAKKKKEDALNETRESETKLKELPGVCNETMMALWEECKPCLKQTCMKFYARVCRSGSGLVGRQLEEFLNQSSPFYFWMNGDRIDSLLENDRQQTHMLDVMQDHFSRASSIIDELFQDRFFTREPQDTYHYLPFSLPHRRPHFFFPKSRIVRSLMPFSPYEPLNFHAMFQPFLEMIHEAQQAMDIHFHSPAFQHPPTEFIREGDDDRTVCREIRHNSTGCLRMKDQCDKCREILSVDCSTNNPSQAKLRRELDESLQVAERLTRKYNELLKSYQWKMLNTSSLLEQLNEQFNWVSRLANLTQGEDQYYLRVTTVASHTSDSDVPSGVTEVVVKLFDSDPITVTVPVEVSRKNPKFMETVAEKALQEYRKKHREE

B1: mouse 16B5 Fab (Fab, V domains shown)
VH: EVQLQQSGAELVKPGASVRLSCTTSGFNIKDIYMHWVKQRPEQGLEWIGRIDPAYGNTKYDPKFQGKATITADTSSNTAYLQLSSLTSEDTAVYYCARRYDTAMDYWGQGTSVTVSS
VL: DIVMSQSPSSLAVSAGEKVTMSCKSSQSLLNSRTRKNYLAWYQQKPGQSPKLLIYWASTRESGVPDRFTGSGSGTDFTLTISSVQAEDLAVYYCKQSYNLWTFGGGTKLEFK
notes: also called Fab mouse antibody
With B1, in experiment [1], the Kd amounted to 41.6 nM, the koff was 0.003 s⁻¹ and the kon came out at 74100 M⁻¹ s⁻¹.

B2: mouse 16B5 anti-clusterin monoclonal antibody (full length) (antibody, V domains shown)
VH: B1 VH
VL: B1 VL
notes: Full-length mouse IgG purified from the original hybridoma; also called murine 16B5; hybridoma 16B5
B2: in experiment [2], the Kd is 6.64 nM, the koff is 0.0017 s⁻¹ and the kon came to 329000 M⁻¹ s⁻¹.

B3: 21B12 Fab (Fab, V domains shown)
VH: QIQLVQSGPELKKPGETVKISCKASGYTFTNYGMHWVKQAPGKGLKWMGWINTYTGEPTYADDFKGRFAFSLETSASTAYLQINNLKNEDTATYFCARDGFLYFFDYWGQGTTLTVSS
VL: DIVMSQSPSSLAVSVGEKVTMSCKSSQSLLYSSNQKNYLAWYQQRPGQSPKLLIYWASTRESGVPDRFTGSGSGTDFTLTISSVKAEDLAVYYCQQYYIYPRTFGGGTKLEIK
notes: also called mouse 21B12 Fab; Fab fragment of the murine 21B12 anti-clusterin antibody
Take B3: in experiment [3], the Kd was 25.3 nM, the koff stood at 0.00352 s⁻¹ and the kon came out at 215000 M⁻¹ s⁻¹.

B4: mouse 21B12 anti-clusterin monoclonal antibody (full length) (antibody, V domains shown)
VH: B3 VH
VL: B3 VL
notes: also called murine 21B12; parent mouse 21B12
As to B4, in experiment [4], the Kd turned out to be 5.09 nM, the koff came to 0.0015 s⁻¹ and the kon turned out to be 362000 M⁻¹ s⁻¹.

B5: humanized 16B5 anti-clusterin antibody (full length, human IgG2) (antibody, V domains shown)
VH: QVQLVQSGAEVKKPGATVKISCKVSGFNIKDIYMHWVQQAPGKGLEWMGRIDPAYGNTKYDPKFQGRVTITADTSTDTAYMELSSLRSEDTAVYYCARRYDTAMDYWGQGTLVTVSS
VL: DIVMTQSPDSLAVSLGERATINCKSSQSLLNSRTRKNYLAWYQQKPGQPPKLLIYWASTRESGVPDRFSGSGSGTDFTLTISSLQAEDVAVYYCKQSYNLWTFGQGTKLEIKV
notes: also called h16B5; H16B5
For the molecule B5, in experiment [2], the Kd is 4.49 nM, the koff was 0.0015 s⁻¹ and the kon is 345000 M⁻¹ s⁻¹.

B6: humanized 16B5 Fab (Fab, V domains shown)
VH: B5 VH
VL: DIVMTQSPDSLAVSLGERATINCKSSQSLLNSRTRKNYLAWYQQKPGQPPKLLIYWASTRESGVPDRFSGSGSGTDFTLTISSLQAEDVAVYYCKQSYNLWTFGQGTKLEIK
notes: The preparation still held some F(ab')2; also called HH16B5 Fab; HH 16B5 Fab
For the molecule B6, in experiment [1], the dissociation constant (Kd) turned out to be 17.2 nM, the koff is 0.0027 s⁻¹ and the kon came to 159000 M⁻¹ s⁻¹.

B7: humanized 21B12 anti-clusterin antibody (full length, human IgG2) (antibody, V domains shown)
VH: QVQLVQSGSELKKPGASVKVSCKASGYTFTNYGMHWVRQAPGQGLEWMGWINTYTGEPTYADDFKGRFVFSLDTSVSTAYLQISSLKAEDTAVYYCARDGFLYFFDYWGQGTLVTVSS
VL: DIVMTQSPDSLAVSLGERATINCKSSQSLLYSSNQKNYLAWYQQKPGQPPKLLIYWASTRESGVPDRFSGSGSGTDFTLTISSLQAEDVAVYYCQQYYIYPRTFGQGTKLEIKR
notes: also called HH21B12
Turning to B7, in experiment [4], the Kd was determined as 2.23 nM, the koff was 0.00083 s⁻¹ and the kon is 374000 M⁻¹ s⁻¹.
